{"source": "paper PMC5673231", "target": "organic anion transporting polypeptide (OATP) 1B3 (UniProt Q9NPD5)", "sequence (Q9NPD5 whole entry)": "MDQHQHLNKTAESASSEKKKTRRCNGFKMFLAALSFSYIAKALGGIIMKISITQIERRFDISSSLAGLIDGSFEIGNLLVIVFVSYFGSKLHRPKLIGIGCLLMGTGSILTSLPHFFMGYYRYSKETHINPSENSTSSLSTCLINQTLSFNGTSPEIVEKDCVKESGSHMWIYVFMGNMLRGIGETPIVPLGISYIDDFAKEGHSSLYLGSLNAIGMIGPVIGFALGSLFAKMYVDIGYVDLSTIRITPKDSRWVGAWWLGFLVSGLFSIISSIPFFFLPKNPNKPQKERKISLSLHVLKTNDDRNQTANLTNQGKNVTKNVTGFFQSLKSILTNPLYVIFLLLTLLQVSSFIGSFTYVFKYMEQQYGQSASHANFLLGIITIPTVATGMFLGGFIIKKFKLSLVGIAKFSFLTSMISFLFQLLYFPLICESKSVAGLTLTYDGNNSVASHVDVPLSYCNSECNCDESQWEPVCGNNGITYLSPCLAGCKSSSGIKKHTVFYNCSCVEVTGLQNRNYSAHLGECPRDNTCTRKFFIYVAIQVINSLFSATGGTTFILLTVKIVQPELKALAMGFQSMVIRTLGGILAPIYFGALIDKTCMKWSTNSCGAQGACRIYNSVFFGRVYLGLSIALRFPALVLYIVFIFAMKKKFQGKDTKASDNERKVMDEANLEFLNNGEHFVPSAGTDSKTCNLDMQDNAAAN", "data": [{"substance": "octapeptide cholecystokinin 8", "values": [{"measurement": "Km (called the affinity constant) of CCK-8 transport, [^3H]CCK-8 accumulation 0.1-40 uM, 3 min, in HEK293-OATP1B3 cells pretreated with bortezomib (50 nM, 7 h), Michaelis-Menten fit", "result": 4.9, "unit": "µM"}, {"measurement": "Km (called the affinity constant) of CCK-8 transport, [^3H]CCK-8 accumulation 0.1-40 uM, 3 min, in HEK293-OATP1B3 cells pretreated with vehicle control, Michaelis-Menten fit", "result": 5.8, "unit": "µM"}]}]}
